Assays:
[1] = target: T1, human TIGIT stably expressed on Jurkat/IL-2 reporter cells (Jurkat/TIGIT cells) (human, UniProt Q495A1 22-244); experiment: flow cytometry, Jurkat/TIGIT cells, 20 nM
T1 sequence: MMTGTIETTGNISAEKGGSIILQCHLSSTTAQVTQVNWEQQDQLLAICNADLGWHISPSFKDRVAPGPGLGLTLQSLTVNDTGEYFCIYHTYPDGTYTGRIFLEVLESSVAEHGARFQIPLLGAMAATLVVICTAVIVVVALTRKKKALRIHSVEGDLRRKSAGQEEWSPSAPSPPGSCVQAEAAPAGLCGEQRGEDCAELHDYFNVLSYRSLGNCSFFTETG

[2] = target: human PD-1 stably expressed on Jurkat/IL-2 reporter cells (Jurkat/PD-1 cells) (human, UniProt Q15116 21-288); experiment: flow cytometry, Jurkat/PD-1 cells, 20 nM
Sequence of human PD-1 stably expressed on Jurkat/IL-2 reporter cells (Jurkat/PD-1 cells) (human, UniProt Q15116 21-288) (Q15116 21-288): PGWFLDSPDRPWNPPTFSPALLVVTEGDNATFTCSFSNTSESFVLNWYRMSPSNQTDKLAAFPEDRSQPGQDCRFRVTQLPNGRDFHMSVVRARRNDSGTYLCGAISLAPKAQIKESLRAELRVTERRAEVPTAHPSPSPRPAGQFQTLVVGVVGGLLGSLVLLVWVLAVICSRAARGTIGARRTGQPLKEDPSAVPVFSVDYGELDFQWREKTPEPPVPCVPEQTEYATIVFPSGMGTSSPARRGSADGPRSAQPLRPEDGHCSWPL

CD28 = CD28 (UniProt P10747 19-220); experiment: flow cytometry, HEK293 cells transfected with CD28
[3] = target: human PD-1 stably expressed on Jurkat/IL-2 reporter cells (Jurkat/PD-1 cells) (human, UniProt Q15116 25-288); experiment: cell-based or functional assay
Sequence of human PD-1 stably expressed on Jurkat/IL-2 reporter cells (Jurkat/PD-1 cells) (human, UniProt Q15116 25-288) (Q15116 25-288): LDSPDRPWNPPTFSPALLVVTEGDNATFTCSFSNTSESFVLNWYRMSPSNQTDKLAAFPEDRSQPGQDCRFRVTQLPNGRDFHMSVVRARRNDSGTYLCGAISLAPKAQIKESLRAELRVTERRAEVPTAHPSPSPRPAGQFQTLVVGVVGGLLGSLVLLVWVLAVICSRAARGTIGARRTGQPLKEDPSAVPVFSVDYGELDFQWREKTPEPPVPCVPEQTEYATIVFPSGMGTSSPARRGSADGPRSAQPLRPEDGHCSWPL

[4] = target: T2, human TIGIT stably expressed on Jurkat/IL-2 reporter cells (Jurkat/TIGIT cells) (human, UniProt Q495A1 22-244); experiment: cell-based or functional assay
T2 sequence (looked up): T1 sequence

CD96 = target: T3, CD96 (UniProt P40200 22-585, limits assumed); experiment: flow cytometry, cells expressing CD96
T3 sequence (looked up): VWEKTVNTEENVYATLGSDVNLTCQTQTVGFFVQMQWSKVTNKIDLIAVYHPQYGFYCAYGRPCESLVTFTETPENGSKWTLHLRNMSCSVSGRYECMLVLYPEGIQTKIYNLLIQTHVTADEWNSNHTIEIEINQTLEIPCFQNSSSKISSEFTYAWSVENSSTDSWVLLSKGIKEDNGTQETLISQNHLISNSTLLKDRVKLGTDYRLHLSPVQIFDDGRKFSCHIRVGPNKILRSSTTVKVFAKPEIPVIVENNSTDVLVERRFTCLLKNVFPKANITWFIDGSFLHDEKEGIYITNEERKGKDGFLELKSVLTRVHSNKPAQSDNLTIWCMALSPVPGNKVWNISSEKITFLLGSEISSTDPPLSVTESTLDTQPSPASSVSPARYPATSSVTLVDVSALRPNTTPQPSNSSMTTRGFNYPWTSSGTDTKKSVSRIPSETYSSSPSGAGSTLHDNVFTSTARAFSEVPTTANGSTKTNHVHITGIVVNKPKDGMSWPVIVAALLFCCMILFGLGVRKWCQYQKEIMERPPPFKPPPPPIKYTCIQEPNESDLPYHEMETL

B1: PD-L1/CD155 Stack 2 (Fc fusion)
chain: FTVTVPKDLYVVEYGSNMTIECKFPVEKQLDLAALIVYWEMEGKDIIQFVHGEEDQKAQHSSYRQRARLLKDQLSLGNAALQITDVKLQDAGVYRCMISYGGGADYKRITVKVNAGGGGSGGGGSEPKSSDKTHTCPPCPAPEAEGAPSVFLFPPKPKDTLMISRTPEVTCVVVDVSHEDPEVKFNWYVDGVEVHNAKTKPREEQYNSTYRVVSVLTVLHQDWLNGKEYKCKVSNKALPAPIEKTISKAKGQPREPQVYTLPPSRDELTKNQVSLTCLVKGFYPSDIAVEWESNGQPENNYKTTPPVLDSDGSFFLYSKLTVDKSRWQQGNVFSCSVMHEALHNHYTQKSLSLSPGKGGGGSGGGGSGGGGSWPPPGTGDVVVQAPTQVSGFLGDSVTLPCYLQVPNMEVTHVSQLTWARHGESGSMAVFHQTQGPWYAESKRLEFVAARLGAELRNASLRMFGLRVEDEGNYTCQFVTFPQRSRSVDIWLRVL
MFI at 20 nM [1]: 36500 MFI
MFI at 20 nM [2]: 69800 MFI

B2: Wild-type CD155-ECD-Fc (Fc fusion, not shown: a dimerising Fc or GST)
chain: WPPPGTGDVVVQAPTQVPGFLGDSVTLPCYLQVPNMEVTHVSQLTWARHGESGSMAVFHQTQGPSYSESKRLEFVAARLGAELRNASLRMFGLRVEDEGNYTCLFVTFPQGSRSVDIWLRVLAKPQNTAEVQKVQLTGEPVPMARCVSTGGRPPAQITWHSDLGGMPNTSQVPGFLSGTVTVTSLWILVPSSQVDGKNVTCKVEHESFEKPQLLTVNLTVYYPPEVSISGYDNNWYLGQNEATLTCDARSNPEPTGYNWSTTMGPLPPFAVAQGAQLLIRPVDKPINTTLICNVTNALGARQAELTVQVKEGPPSEHSGISRN
MFI at 20 nM [2]: 511 MFI

B3: WT CD80 ECD Fc (Fc fusion, not shown: a dimerising Fc or GST)
chain: VIHVTKEVKEVATLSCGHNVSVEELAQTRIYWQKEKKMVLTMMSGDMNIWPEYKNRTIFDITNNLSIVILALRPSDEGTYECVVLKYEKDAFKREHLAEVTLSVKADFPTPSISDFEIPTSNIRRIICSTSGGFPEPHLSWLENGEELNAINTTVSQDPETELYAVSSKLDFNMTTNHSFMCLIKYGHLRVNQTFNWNTTKQEHFPDN
MFI at 66.6 nM (CD28): 3070 MFI

B4: PD-L1/CD155 Stack 4: (PD-L1 IgV) (G4S)3 (CD155 IgV) (G4S)2 Fc (Fc fusion)
chain: FTVTVPKDLYVVEYGSNMTIECKFPVEKQLDLAALIVYWEMEGKDIIQFVHGEEDQKAQHSSYRQRARLLKDQLSLGNAALQITDVKLQDAGVYRCMISYGGGADYKRITVKVNAGGGGSGGGGSGGGGSWPPPGTGDVVVQAPTQVSGFLGDSVTLPCYLQVPNMEVTHVSQLTWARHGESGSMAVFHQTQGPWYAESKRLEFVAARLGAELRNASLRMFGLRVEDEGNYTCQFVTFPQRSRSVDIWLRVLGGGGSGGGGSEPKSSDKTHTCPPCPAPEAEGAPSVFLFPPKPKDTLMISRTPEVTCVVVDVSHEDPEVKFNWYVDGVEVHNAKTKPREEQYNSTYRVVSVLTVLHQDWLNGKEYKCKVSNKALPAPIEKTISKAKGQPREPQVYTLPPSRDELTKNQVSLTCLVKGFYPSDIAVEWESNGQPENNYKTTPPVLDSDGSFFLYSKLTVDKSRWQQGNVFSCSVMHEALHNHYTQKSLSLSPGK
Fold Increase Compared to non-stack variant CD155 IgV-Fc control [3]: 5.6 fold
Fold Increase Compared to non-stack variant PD-L1 IgV-Fc control [3]: 2 fold
Fold Increase Compared to variant PD-L1 IgV-Fc and variant CD155 IgV-Fc [3]: 2.7 fold
RLU [3]: 1920 RLU
Fold Increase Compared to non-stack variant CD155 IgV-Fc control [4]: 5.6 fold
Fold Increase Compared to non-stack variant PD-L1 IgV-Fc control [4]: 2 fold
Fold Increase Compared to variant PD-L1 IgV-Fc and variant CD155 IgV-Fc [4]: 2.7 fold
RLU [4]: 1920 RLU

B5: PD-L1/CD155 Stack 4 (Fc fusion)
chain: B4 chain
MFI at 20 nM [1]: 60500 MFI
MFI at 20 nM [2]: 78000 MFI

B6: PD-L1/CD155 Stack 1 (Fc fusion)
chain: WPPPGTGDVVVQAPTQVSGFLGDSVTLPCYLQVPNMEVTHVSQLTWARHGESGSMAVFHQTQGPWYAESKRLEFVAARLGAELRNASLRMFGLRVEDEGNYTCQFVTFPQRSRSVDIWLRVLGGGGSGGGGSEPKSSDKTHTCPPCPAPEAEGAPSVFLFPPKPKDTLMISRTPEVTCVVVDVSHEDPEVKFNWYVDGVEVHNAKTKPREEQYNSTYRVVSVLTVLHQDWLNGKEYKCKVSNKALPAPIEKTISKAKGQPREPQVYTLPPSRDELTKNQVSLTCLVKGFYPSDIAVEWESNGQPENNYKTTPPVLDSDGSFFLYSKLTVDKSRWQQGNVFSCSVMHEALHNHYTQKSLSLSPGKGGGGSGGGGSGGGGSFTVTVPKDLYVVEYGSNMTIECKFPVEKQLDLAALIVYWEMEGKDIIQFVHGEEDQKAQHSSYRQRARLLKDQLSLGNAALQITDVKLQDAGVYRCMISYGGGADYKRITVKVNA
MFI at 20 nM [1]: 80700 MFI
MFI at 20 nM [2]: 61800 MFI

B7: CD112-IgV (Fc fusion, not shown: a dimerising Fc or GST)
chain: QDVRVQVLPEVRGQLGGTVELPCHLLPPVPGLYISLVTWQRPDAPANHQNVAAFHPKMGPSFPSPKPGSERLSFVSAKQSTGQDTEAELQDATLALHGLTVEDEGNYTCEFATFPKGSVRGMTWLRV
MFI at 25 nM (CD96): 1170 MFI

B8: PD-L1/CD155 Stack 3: (CD155 IgV) (G4S)3 (PD-L1 IgV) (G4S)2 Fc (Fc fusion)
chain: WPPPGTGDVVVQAPTQVSGFLGDSVTLPCYLQVPNMEVTHVSQLTWARHGESGSMAVFHQTQGPWYAESKRLEFVAARLGAELRNASLRMFGLRVEDEGNYTCQFVTFPQRSRSVDIWLRVLGGGGSGGGGSGGGGSFTVTVPKDLYVVEYGSNMTIECKFPVEKQLDLAALIVYWEMEGKDIIQFVHGEEDQKAQHSSYRQRARLLKDQLSLGNAALQITDVKLQDAGVYRCMISYGGGADYKRITVKVNAGGGGSGGGGSEPKSSDKTHTCPPCPAPEAEGAPSVFLFPPKPKDTLMISRTPEVTCVVVDVSHEDPEVKFNWYVDGVEVHNAKTKPREEQYNSTYRVVSVLTVLHQDWLNGKEYKCKVSNKALPAPIEKTISKAKGQPREPQVYTLPPSRDELTKNQVSLTCLVKGFYPSDIAVEWESNGQPENNYKTTPPVLDSDGSFFLYSKLTVDKSRWQQGNVFSCSVMHEALHNHYTQKSLSLSPGK
Fold Increase Compared to non-stack variant CD155 IgV-Fc control [3]: 1.3 fold
Fold Increase Compared to non-stack variant PD-L1 IgV-Fc control [3]: 0.5 fold
Fold Increase Compared to variant PD-L1 IgV-Fc and variant CD155 IgV-Fc [3]: 0.6 fold
RLU [3]: 434 RLU
Fold Increase Compared to non-stack variant CD155 IgV-Fc control [4]: 1.3 fold
Fold Increase Compared to non-stack variant PD-L1 IgV-Fc control [4]: 0.5 fold
Fold Increase Compared to variant PD-L1 IgV-Fc and variant CD155 IgV-Fc [4]: 0.6 fold
RLU [4]: 434 RLU

B9: PD-L1/CD155 Stack 3 (Fc fusion)
chain: B8 chain
MFI at 20 nM [1]: 81800 MFI
MFI at 20 nM [2]: 47300 MFI

— patent publication US20260062456A1 (ALPINE IMMUNE SCIENCES, published 2026)
